The source of these data is patent US20150141489.

This data set concerns the target recombinant GST-S6 (UniProt P62753).

Consider T7-tagged mouse S6K1 Isoform-2 (Iso-2), for which the “in vitro kinase assay (phospho-S6 S240-244 blot)” value is listed as “have no kinase activity”.
